B1: V5-Par6A (wild type) [not stated] / HA-Cdc42(G12V) [not stated] (parent complex)
chain 1: MARPQRTPARSPDSIVEVKSKFDAEFRRFALPRASVSGFQEFSRLLRAVHQIPGLDVLLGYTDAHGDLLPLTNDDSLHRALASGPPPLRLLVQKRAEADSSGLAFASNSLQRRKKGLLLRPVAPLRTRPPLLISLPQDFRQVSSVIDVDLLPETHRRVRLHKHGSDRPLGFYIRDGMSVRVAPQGLERVPGIFISRLVRGGLAESTGLLAVSDEILEVNGIEVAGKTLDQVTDMMVANSHNLIVTVKPANQRNNVVRGASGRLTGPPSAGPGPAEPDSDDDSSDLVIENRQPPSSNGLSQGPPCWDLHPGCRHPGTRSSLPSLDDQEQASSGWGSRIRGDGSGFSL
chain 2: not shown

Variants of: B1
Test: co-immunoprecipitation (IP: GFP), quantified blot; HEK293T cells; HA-Cdc42(G12V) recovered in the GFP (YFP-Tuba) IP when co-expressed with the Par6A variant; n = 4; parent: 1; read off a plot

Variant	ratio to parent
chain 1 I133A, chain 1 S134A	~0.21

Reference: PMC6224091 (2018)
